According to US20260209373A1 (TIANJIN MEDICAL UNIVERSITY GENERAL HOSPITAL, published 2026):
Blank lines part the entries; values can stand above or below the molecule they belong to.

Tests used:
[1] = biological target: T1, human BAFFR on HEK-293T-BAFFR cells (human, UniProt Q96RJ3 1-184); test: cell-based or functional assay
T1 sequence: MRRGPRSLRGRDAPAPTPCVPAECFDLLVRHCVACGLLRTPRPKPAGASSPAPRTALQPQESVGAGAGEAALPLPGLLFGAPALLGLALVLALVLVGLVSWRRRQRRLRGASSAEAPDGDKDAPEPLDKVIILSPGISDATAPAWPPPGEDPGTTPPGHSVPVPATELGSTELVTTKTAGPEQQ

[2] = biological target: T1, human BAFFR on HEK-293T-BAFFR cells; test: flow cytometry on HEK-293T-BAFFR cells, anti-human Fc-647 secondary
Procedure: The cells were resuspended in a suitable volume of staining solution for flow cytometry, so that the final cell concentration per tube reached 2×10⁵ cells/mL.
The antibodies NB467-55, NB467-46, NB467-35, and NB467-8 produced in Example 1, and Lanalumab were respectively diluted to 200 nM. […] After incubation, the cells were washed once with a FACS buffer.
The anti-human FC-647 secondary antibody (Jackson, 109-605-003) was diluted according to the instructions, and 100 μl of the diluted secondary antibody was added to a sample tube. After uniform mixing, the system was incubated at 4° C. for 60 min. After incubation, the cells were washed 3 times with FACS, and the cell precipitate obtained by centrifugation was resuspended in 200 μl of PBS and detected by flow cytometry (Sony, SA3800).

[3] = biological target: human BAFFR-his protein (Acro, BAR-HP2H6) (human) (UniProt Q96RJ3); test: competition ELISA; plate-coated human BAFFR-his, competitor biotin human BAFF his at 0.2 ug/mL
[4] = biological target: T2, human BAFFR-his protein (Acro, BAR-HP2H6) (human, UniProt Q96RJ3 7-71, limits assumed); test: as above
T2 construct: Bought protein; not shown: his tag
T2 sequence: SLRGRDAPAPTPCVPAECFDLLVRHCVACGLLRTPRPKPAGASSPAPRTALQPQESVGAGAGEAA
Procedure: Specifically, human BAFFR-his protein (Acro, BAR-HP2H6) was added to a 96-well microplate at 200 ng/well and incubated at 4° C. overnight. On the following day, the plate was washed 3 times with PBST. Then the plate was blocked with 5% w/v skim milk in PBST at 37° C. for 1 h, and then washed with PBS.
The antibody to be tested was 1:3 diluted over gradients from a concentration of 800 nM (diluted with 5% skim milk). Biotin Human BAFF his protein (Acro, BAF-H82Q2) was diluted to 0.2 μg/mL. Control group: 50 μL of diluted Biotin Human BAFF his protein and 50 μL of 5% milk. Experimental group: 50 μL of diluted Biotin Human BAFF his protein and 50 μL of antibody diluted over gradients.
Then, the antibody/Biotin Human BAFF his mixture was added to a plate coated with Human BAFFR-his protein, and incubated at 37° C. for 1 h. The plate was washed 5 times with PBST. The secondary antibody (Chengdu NBbiolab Biotechnology Co., Ltd.) 1:10K diluted with a blocking solution was added and incubate at 37° C. for 1 h. The plate incubated with the secondary antibody was washed 5 times with PBST. 100 μl of a TMB monocomponent developing solution was added to each well, and incubated at 37° C. for 7 min. The reaction was terminated with 50 μL/well of 1 M HCL, and then the absorption value at 450 nm was determined. The median inhibition concentration (IC50 value) was obtained by analyzing the data with Graphpad Prism software.

- EC50 (ng/ml), ADCC reporter assay (Jurkat-NFAT-CD16a luciferase) [1]: 56.5 ng/mL
- EC50 [2]: 3.58 nM
- IC50 [3]: 310 nM
Molecule: Lanalumab (antibody)

- EC50 (ng/ml), ADCC reporter assay (Jurkat-NFAT-CD16a luciferase) [1]: 2.67 ng/mL
- EC50 [2]: 3.24 nM
- IC50 [4]: 5.13 nM
B1: NB467-35 (Fc fusion)
chain: QVQLVESGGGLVQPGGSLRLSCAASGFSLEYYAIGWFRQTPGKEREAISCIDSPAKSTYYADSVKGRFTISRDNSKNTVYLQMNSLKAEDTAVYYCAADVYYRGSYLYRSCNPTESKYWGQGTQVTVSS
notes: also called nanobody NB467-35; anti-BAFFR nanobody; not shown: Human IgG1 Fc fused to the VHH

- EC50 (ng/ml), ADCC reporter assay (Jurkat-NFAT-CD16a luciferase) [1]: 4.55 ng/mL
- EC50 [2]: 1.55 nM
- IC50 [4]: 30.5 nM
B2: NB467-46 (Fc fusion)
chain: EVQVVESGGGLVQPGGSLRLSCAASGFSLTYYAIGWFRQAPGKEREGVACISGGGDQLYYTDSVKGRFTISRDNAKNTVYLHMNSLKPEDTAVYYCAADVYYSGSYNYRSCNPAESKYWGQGTQVTVSS
notes: also called nanobody NB467-46; anti-BAFFR nanobody; not shown: Human IgG1 Fc fused to the VHH

- EC50 (ng/ml), ADCC reporter assay (Jurkat-NFAT-CD16a luciferase) [1]: 2.89 ng/mL
- EC50 [2]: 1.76 nM
- IC50 [4]: 30.5 nM
B3: NB467-8 (Fc fusion)
chain: QVQLVESGGGLVQPGGSLRLSCAASGFSLEYYAIGWFRHIPGKEREAVSCISSPGDSTWYVDSVKGRFTISRDNAKNTVYLQMNSLKPEDTAVYHCAADVYYSGSYLSRSCNPHESKYWGQGTQVTVSS
notes: also called nanobody NB467-8; anti-BAFFR nanobody; not shown: Human IgG1 Fc fused to the VHH

- EC50 (ng/ml), ADCC reporter assay (Jurkat-NFAT-CD16a luciferase) [1]: 5.09 ng/mL
- EC50 [2]: 1.55 nM
- IC50 [4]: 40.5 nM
B4: NB467-55 (Fc fusion)
chain: EVQVVESGGDLVQPGGSLKLSCQASGFSLTYYAIGWFRQAPGKEREEISCISGDGGMTYYADPVKGRFTISRDNGRNTVYLQMNSLKPEDTAVYYCAADVYYNGNYYSRSCNPAESKYWGQGTQVTVSA
notes: also called nanobody NB467-55; anti-BAFFR nanobody; not shown: Human IgG1 Fc fused to the VHH
